The assay concerns the target 30 kDa ragweed complete pollen extract disulfide protein allergen (Ambrosia trifida (giant ragweed)). In words: Concanavalin A affinity chromatography.

Regarding “Concanavalin A (from UniProt P02866 30-281)”, the percent retained on affinity column is more than 90%.

These data come from patent US20030170763A1.
